Key:
human KLK7, active form [1] = target: T1, human KLK7, active form (human, UniProt P49862 30-253); assay: cell-based or functional assay
mouse KLK7 [2] = target: T2, mouse KLK7 (mouse, UniProt Q91VE3 26-249, limits assumed); assay: cell-based or functional assay
human KLK5, active form [3] = target: T3, human KLK5, active form (human, UniProt Q9Y337 67-293); assay: cell-based or functional assay
mouse KLK5 [4] = target: mouse KLK5 (mouse); assay: cell-based or functional assay
human KLK7, active form [5] = target: T1, human KLK7, active form; assay: SPR (Biacore), antibody captured on Protein A chip, KLK as analyte, single-cycle kinetics, 25 C
Protocol: (§1) All screening assays were performed at 25° C. The running buffer used was 20 mM HEPES, 300 mM NaCl, 0.01% Tween-20, pH 7.5. Antibodies (1 μg/mL) were captured on Fc2-4 of a Series S ProteinA Sensor Chip (Cytiva) flowing at 10 μL/min for 30 s. Kinetics measurements were made in single-cycle kinetics mode with a series of 4-5 concentrations with top concentration of 25-100 nM and serial dilution 4-fold. Contact time was typically 300 s and dissociation time ranged from 1800-3600 s. Flow rate of 30 μL/min was typically used. The sensor chip was regenerated with 10 mM glycine, pH 1.5 with a contact time of 30 s flowing at 50 μL/min.

mouse KLK7 [6] = target: T2, mouse KLK7; assay: as above
Protocol: as §1

human KLK5, active form [7] = target: T3, human KLK5, active form; assay: as above
Protocol: as §1

mouse KLK5 [8] = target: T4, mouse KLK5 (mouse); assay: as above
T4 construct: also called mKLK5
Protocol: as §1

human KLK5, active form [9] = target: T3, human KLK5, active form; assay: SPR (Biacore), antibody captured on Protein A chip, active huKLK5 injected at 0.156-40 nM
Protocol: (§2) The sensor chip was regenerated with 10 mM glycine, pH 1.5 with a contact time of 30 seconds flowing at 50 μL/min.

human KLK7, active form [10] = target: T1, human KLK7, active form; assay: SPR (Biacore), antibody captured on Protein A chip, active huKLK7 injected at 0.156-40 nM
Protocol: as §2

pro-form of human KLK7 = target: T5, pro-form of human KLK7 (human, UniProt P49862 23-253); assay: SPR (Biacore), antibody captured on Protein A chip, proform huKLK7 injected at 0.156-40 nM
T5 construct: Pro-form (zymogen); also called proform of huKLK7; proKLK7
T5 sequence (P49862 23-253): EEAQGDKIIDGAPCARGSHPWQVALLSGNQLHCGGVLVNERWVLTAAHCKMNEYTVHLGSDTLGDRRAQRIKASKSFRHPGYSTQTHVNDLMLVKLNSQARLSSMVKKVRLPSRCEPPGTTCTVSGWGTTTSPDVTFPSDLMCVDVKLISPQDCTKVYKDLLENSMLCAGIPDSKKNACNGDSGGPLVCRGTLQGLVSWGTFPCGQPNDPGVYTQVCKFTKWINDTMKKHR
Protocol: as §2

pro-form of human KLK5 = target: T6, pro-form of human KLK5 (human, UniProt Q9Y337 23-293); assay: SPR (Biacore), antibody captured on Protein A chip, proform huKLK5 injected at 0.156-40 nM
T6 construct: Pro-form (zymogen); also called proform of huKLK5; proKLK5
Protocol: as §2

T2 sequence (Q91VE3 26-249 limits assumed): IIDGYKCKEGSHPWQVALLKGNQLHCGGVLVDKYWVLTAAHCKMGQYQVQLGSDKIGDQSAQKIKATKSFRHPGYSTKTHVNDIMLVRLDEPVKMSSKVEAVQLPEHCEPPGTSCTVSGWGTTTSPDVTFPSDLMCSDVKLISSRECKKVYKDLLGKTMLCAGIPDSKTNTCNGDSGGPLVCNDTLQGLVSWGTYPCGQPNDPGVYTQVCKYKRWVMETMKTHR
T1 sequence (P49862 30-253): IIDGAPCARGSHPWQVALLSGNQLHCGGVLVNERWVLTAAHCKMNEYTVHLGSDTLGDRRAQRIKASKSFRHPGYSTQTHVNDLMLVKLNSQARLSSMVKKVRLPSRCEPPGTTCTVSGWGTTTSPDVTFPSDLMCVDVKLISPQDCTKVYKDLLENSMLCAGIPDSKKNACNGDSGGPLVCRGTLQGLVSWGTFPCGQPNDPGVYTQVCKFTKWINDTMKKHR

IC50(nM), inhibition of protease activity (cleavage of KHLF-AMC) (human KLK7, active form [1]) [nM]	IC50(nM), inhibition of protease activity (cleavage of KHLF-AMC) (mouse KLK7 [2]) [nM]	IC50(nM), inhibition of protease activity (cleavage of BOC-Val-Pro-Arg-AMC) (human KLK5, active form [3]) [nM]	IC50(nM), inhibition of protease activity (cleavage of BOC-Val-Pro-Arg-AMC) (mouse KLK5 [4]) [nM]	Kd (human KLK7, active form [5]) [nM]	Kd (mouse KLK7 [6]) [nM]	Kd (human KLK5, active form [7]) [nM]	Kd (mouse KLK5 [8]) [nM]	Kd (human KLK5, active form [9]) [nM]	Kd (human KLK7, active form [10]) [nM]	binding result (pro-form of human KLK7)	binding result (pro-form of human KLK5)	Binder
0.25	5.13	0.25	17.2	0.0218	1.55	0.01	2.79					KLK5/KLK7-Dual-Ab2 (antibody, V domains shown, Captured on a Protein A chip as an antibody; also called KLK5/7-Dual-Ab2) VH: QLQLQESGPGLVKPSETLSLTCTVSGGSISSDDYYWVWIRQPPGKGLEWIGSIDYFASTYYNPSLKSRVTISVDTSKNQFSLKLSSVTAADTAVYYCARGRPLGYGARHDYYGMDVWGQGTTVTVSS VL: DIQMTQSPSSLSASVGDRVTITCRASQSISSYLNWYQQKPGKAPKLLIYSASSLQSGVPSRFSGSGSGTDFTLTISSLQPEDFATYYCQQSPYFPPLTFGGGTKVEIK
				1.82	1	1000						KLK5/KLK7-Dual-Ab1 (antibody, V domains shown, Captured on a Protein A chip as an antibody; also called KLK5/7-Dual-Ab1) VH: QLQLQESGPGLVKPSETLSLTCTVSGGSISSSDYYWGWIRQPPGKGLEWIGSIYYSGSTYYNPSLKSRVTISVDTSKNQFSLKLSSVTAADTAVYYCARGRPLGYGARHYYYGMDVWGQGTTVTVSS VL: DIQMTQSPSSLSASVGDRVTITCRASQSISSYLNWYQQKPGKAPKLLIYSASSLQSGVPSRFSGSGSGTDFTLTISSLQPEDFATYYCQQSPPFPPLTFGGGTKVEIK
0.16	1.77	0.27	16.1	0.002	0.129	0.0243	3.15	< 0.05	< 0.05	no binding (tested: 40 nM)	no binding (tested: 40 nM)	KLK5/KLK7-Dual-Ab4 (antibody, V domains shown, Captured on a Protein A chip or coupled to a CM5 chip as an antibody; also called KLK5/7-Dual-Ab4) VH: QLQLQESGPGLVKPSETLSLTCTVSGGSISSLDYYWVWIRQPPGKGLEWIGSIDYSGDTYYNPSLKSRVTISVDTSKNQFSLKLSSVTAADTAVYYCARGRPLGYGARHYYYAMDVWGQGTTVTVSS VL: DIQMTQSPSSLSASVGDRVTITCRASQSISSYLNWYQQKPGKAPKLLIYSASSLQSGVPSRFSGSGSGTDFTLTISSLQPEDFATYYCQQSPYFPPLTFGGGTKVEIK
0.21	5.28	0.25	24.1	0.0136	1.11	0.141	4.02					KLK5/KLK7-Dual-Ab3 (antibody, V domains shown, Captured on a Protein A chip as an antibody; also called KLK5/7-Dual-Ab3) VH: QLQLQESGPGLVKPSETLSLTCTVSGGSISSDDYYWVWIRQPPGKGLEWIGSIDYYASTYYSPSLKSRVTISVDTSKNQFSLKLSSVTAADTAVYYCARGRPLGYGAKHYYYGMDVWGQGTTVTVSS VL: DIQMTQSPSSLSASVGDRVTITCRASQSISSYLNWYQQKPGKAPKLLIYSASSLQSGVPSRFSGSGSGTDFTLTISSLQPEDFATYYCQQSPYFPPLTFGGGTKVEIK
